The supplement of paper PMC9112550, “Optimization of the antimicrobial peptide Bac7 by deep mutational scanning” (BMC Biology, 2022)

system: Escherichia coli TOP10; experiment: shrunken log2 fold change of peptide-encoding DNA abundance (4.5 h post-induction vs induction); higher = less antimicrobial activity (less host growth inhibition); details: time post-induction: 4.5 h; library: site-saturation at positions 5, 18, 19, 20
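Also: peptides expressed intracellularly from a pBAD plasmid library in pooled LB shake-flask culture, induced with 0.3% L-arabinose, DNA abundance read by NGS, three biological replicates, DESeq2 with apeglm shrinkage.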

Sequence | shrunken log2 fold change
RRIRSRPPRLPRPRPRPMMAPRP | -0.199
RRIRDRPPRLPRPRPRPQEMPRP | -0.01
RRIRMRPPRLPRPRPRPAQMPRP | -0.0763
RRIRLRPPRLPRPRPRPCLRPRP | -0.0817
RRIRDRPPRLPRPRPRPFCCPRP | 0.26
RRIRTRPPRLPRPRPRPLSPPRP | 0.0169
RRIRFRPPRLPRPRPRPFLNPRP | -0.484
RRIRHRPPRLPRPRPRPQCVPRP | 0.00938
RRIRQRPPRLPRPRPRPISIPRP | -0.93
RRIRRRPPRLPRPRPRPPSLPRP | 0.522
RRIRVRPPRLPRPRPRPAVHPRP | -0.021
RRIRGRPPRLPRPRPRPSTDPRP | 0.899
RRIRLRPPRLPRPRPRPVDKPRP | -0.138
RRIRERPPRLPRPRPRPLADPRP | -0.14
RRIRIRPPRLPRPRPRPDKTPRP | -0.0467
RRIRCRPPRLPRPRPRPLKIPRP | -0.511
RRIRQRPPRLPRPRPRPDMFPRP | 0.0212
RRIRIRPPRLPRPRPRPQNDPRP | -0.296
RRIRNRPPRLPRPRPRPMPRPRP | 0.11
RRIRRRPPRLPRPRPRPGGTPRP | 0.245
RRIRMRPPRLPRPRPRPGNMPRP | -0.331
RRIRRRPPRLPRPRPRPFLHPRP | 0.0267

Sequence | shrunken log2 fold change
RRIRYRPPRLPRPRPRPNFPPRP | -0.313
RRIRCRPPRLPRPRPRPDMNPRP | -0.312
RRIRRRPPRLPRPRPRPVMHPRP | 0.0548
RRIRSRPPRLPRPRPRPEETPRP | -0.00674
RRIRNRPPRLPRPRPRPVWEPRP | 0.0809
RRIRVRPPRLPRPRPRPDEEPRP | 0.393
RRIRQRPPRLPRPRPRPDQDPRP | 0.192
RRIRERPPRLPRPRPRPNDTPRP | -0.348
RRIRGRPPRLPRPRPRPHQFPRP | 0.106
RRIRCRPPRLPRPRPRPKCDPRP | -0.135
RRIRNRPPRLPRPRPRPLDKPRP | -0.186
RRIRTRPPRLPRPRPRPLCEPRP | -0.0895
RRIRFRPPRLPRPRPRPAPYPRP | 1.75
RRIRMRPPRLPRPRPRPKSWPRP | 1.11
RRIRTRPPRLPRPRPRPYDLPRP | -0.14
RRIRVRPPRLPRPRPRPCQAPRP | -0.0137
RRIRDRPPRLPRPRPRPMKPPRP | 0.0123
RRIRFRPPRLPRPRPRPSDWPRP | 0.0908
RRIRVRPPRLPRPRPRPQETPRP | 0.0431
RRIRRRPPRLPRPRPRPWQPPRP | -0.108
RRIRGRPPRLPRPRPRPHHRPRP | -0.00334
RRIRVRPPRLPRPRPRPSMQPRP | -0.223

Sequence | shrunken log2 fold change
RRIRKRPPRLPRPRPRPVCGPRP | 0.62
RRIRFRPPRLPRPRPRPWSHPRP | -0.843
RRIRIRPPRLPRPRPRPEGLPRP | -0.185
RRIRIRPPRLPRPRPRPGFKPRP | -0.219
RRIRKRPPRLPRPRPRPWQWPRP | 0.0199
RRIRCRPPRLPRPRPRPYTKPRP | -0.321
RRIRWRPPRLPRPRPRPCWDPRP | 0.0945
RRIRSRPPRLPRPRPRPNCTPRP | -0.531
RRIRGRPPRLPRPRPRPYILPRP | -0.614
RRIRPRPPRLPRPRPRPDIVPRP | -0.0822
RRIRRRPPRLPRPRPRPWNCPRP | 0.0332
RRIRCRPPRLPRPRPRPFWFPRP | -0.245
RRIRDRPPRLPRPRPRPKGFPRP | -0.073
RRIRSRPPRLPRPRPRPQRLPRP | -0.187
RRIRCRPPRLPRPRPRPKITPRP | -0.573
RRIRIRPPRLPRPRPRPSGAPRP | 0.0148
RRIRGRPPRLPRPRPRPVRAPRP | 1.01
RRIRTRPPRLPRPRPRPIWNPRP | -0.169
RRIRYRPPRLPRPRPRPHLWPRP | -0.255
RRIRLRPPRLPRPRPRPGIWPRP | 0.355
RRIRGRPPRLPRPRPRPWFKPRP | -0.824
RRIRCRPPRLPRPRPRPYDDPRP | -0.396

Sequence | shrunken log2 fold change
RRIRQRPPRLPRPRPRPKVIPRP | -0.0316
RRIRGRPPRLPRPRPRPYLNPRP | -0.233
RRIRYRPPRLPRPRPRPFYRPRP | -0.0056
RRIRHRPPRLPRPRPRPNHEPRP | -0.493
RRIRTRPPRLPRPRPRPICYPRP | -0.387
RRIRFRPPRLPRPRPRPHDMPRP | -0.292
RRIRMRPPRLPRPRPRPMDDPRP | 0.15
RRIRNRPPRLPRPRPRPVDAPRP | 0.154
RRIRGRPPRLPRPRPRPNTCPRP | 0.103
RRIRKRPPRLPRPRPRPNDHPRP | -0.177
RRIRVRPPRLPRPRPRPDHFPRP | -0.0417
RRIRHRPPRLPRPRPRPGYDPRP | 0.381
RRIRNRPPRLPRPRPRPVTNPRP | 0.0485
RRIRYRPPRLPRPRPRPHHEPRP | -0.0815
RRIRTRPPRLPRPRPRPWSRPRP | -0.0291
RRIRTRPPRLPRPRPRPTYFPRP | -0.313
RRIRNRPPRLPRPRPRPNHYPRP | -0.885
RRIRKRPPRLPRPRPRPPCPPRP | 0.399
RRIRLRPPRLPRPRPRPNSDPRP | -0.2
RRIRTRPPRLPRPRPRPHPIPRP | -0.165
RRIRQRPPRLPRPRPRPAFDPRP | -0.094
RRIRFRPPRLPRPRPRPSCHPRP | -0.495

Sequence | shrunken log2 fold change
RRIRERPPRLPRPRPRPILIPRP | -0.0809
RRIRMRPPRLPRPRPRPRMFPRP | 0.154
RRIRLRPPRLPRPRPRPADGPRP | -0.082
RRIRDRPPRLPRPRPRPKIDPRP | 0.0277
RRIRKRPPRLPRPRPRPTLDPRP | 0.877
RRIRIRPPRLPRPRPRPLLQPRP | -0.163
RRIRSRPPRLPRPRPRPMIGPRP | 0.0355
RRIRRRPPRLPRPRPRPPGCPRP | 0.417
RRIRQRPPRLPRPRPRPCNVPRP | -0.0261
RRIRNRPPRLPRPRPRPVLYPRP | -0.374
RRIRNRPPRLPRPRPRPMWNPRP | -0.294
RRIRWRPPRLPRPRPRPYGWPRP | -0.0271
RRIRKRPPRLPRPRPRPWLHPRP | 0.24
RRIRYRPPRLPRPRPRPHESPRP | 0.00952
RRIRWRPPRLPRPRPRPRTPPRP | 0.559
RRIRGRPPRLPRPRPRPQMEPRP | 0.473
RRIRHRPPRLPRPRPRPECPPRP | -0.0835
RRIRTRPPRLPRPRPRPLLRPRP | 0.0975
RRIRHRPPRLPRPRPRPERAPRP | 0.305
RRIRDRPPRLPRPRPRPGNCPRP | 0.153
RRIRWRPPRLPRPRPRPAICPRP | -0.0928
